Measured values from patent publication US20130266516, “LAR Protein-Specific Ligand” (COMMISSARIAT A L'ENERGIE ATOMIQUE ET AUX ENERGIES, published 2013).

Experiments:
Conditions in all cases: label: radiolabel, biotin or Alexa Fluor 647/680
[1] = biological target: T1, LAR protein (PTPRF, receptor-type protein tyrosine phosphatase F), endogenous on human cell lines (Homo sapiens, UniProt P10586 SEQ:30-1907); experiment: MCF-7 whole cells, Scatchard analysis of radioligand-type cell binding; Cmax 251 pM
Description: (§1) The binding curves were obtained for each cell type. From the specific binding, and using the Scatchard representation, the Kd and the Cmax were calculated for each cell type. Knowing the Cmax and the number of cells during the binding, the inventors were able to deduce therefrom an approximate number of targets per cell.

[2] = biological target: T1, LAR protein (PTPRF, receptor-type …); experiment: HEK293-KDR whole cells, Scatchard; Cmax 119 pM
Description: as §1

[3] = biological target: T1, LAR protein (PTPRF, receptor-type …); experiment: HEK293 whole cells, Scatchard; Cmax 264 pM
Description: as §1

[4] = biological target: T1, LAR protein (PTPRF, receptor-type …); experiment: A-431 whole cells, Scatchard; Cmax 455 pM
Description: as §1

[5] = biological target: T1, LAR protein (PTPRF, receptor-type …); experiment: MDA-MB-231 whole cells, Scatchard; Cmax 131 pM
Description: as §1

T1 sequence (P10586 30-1907): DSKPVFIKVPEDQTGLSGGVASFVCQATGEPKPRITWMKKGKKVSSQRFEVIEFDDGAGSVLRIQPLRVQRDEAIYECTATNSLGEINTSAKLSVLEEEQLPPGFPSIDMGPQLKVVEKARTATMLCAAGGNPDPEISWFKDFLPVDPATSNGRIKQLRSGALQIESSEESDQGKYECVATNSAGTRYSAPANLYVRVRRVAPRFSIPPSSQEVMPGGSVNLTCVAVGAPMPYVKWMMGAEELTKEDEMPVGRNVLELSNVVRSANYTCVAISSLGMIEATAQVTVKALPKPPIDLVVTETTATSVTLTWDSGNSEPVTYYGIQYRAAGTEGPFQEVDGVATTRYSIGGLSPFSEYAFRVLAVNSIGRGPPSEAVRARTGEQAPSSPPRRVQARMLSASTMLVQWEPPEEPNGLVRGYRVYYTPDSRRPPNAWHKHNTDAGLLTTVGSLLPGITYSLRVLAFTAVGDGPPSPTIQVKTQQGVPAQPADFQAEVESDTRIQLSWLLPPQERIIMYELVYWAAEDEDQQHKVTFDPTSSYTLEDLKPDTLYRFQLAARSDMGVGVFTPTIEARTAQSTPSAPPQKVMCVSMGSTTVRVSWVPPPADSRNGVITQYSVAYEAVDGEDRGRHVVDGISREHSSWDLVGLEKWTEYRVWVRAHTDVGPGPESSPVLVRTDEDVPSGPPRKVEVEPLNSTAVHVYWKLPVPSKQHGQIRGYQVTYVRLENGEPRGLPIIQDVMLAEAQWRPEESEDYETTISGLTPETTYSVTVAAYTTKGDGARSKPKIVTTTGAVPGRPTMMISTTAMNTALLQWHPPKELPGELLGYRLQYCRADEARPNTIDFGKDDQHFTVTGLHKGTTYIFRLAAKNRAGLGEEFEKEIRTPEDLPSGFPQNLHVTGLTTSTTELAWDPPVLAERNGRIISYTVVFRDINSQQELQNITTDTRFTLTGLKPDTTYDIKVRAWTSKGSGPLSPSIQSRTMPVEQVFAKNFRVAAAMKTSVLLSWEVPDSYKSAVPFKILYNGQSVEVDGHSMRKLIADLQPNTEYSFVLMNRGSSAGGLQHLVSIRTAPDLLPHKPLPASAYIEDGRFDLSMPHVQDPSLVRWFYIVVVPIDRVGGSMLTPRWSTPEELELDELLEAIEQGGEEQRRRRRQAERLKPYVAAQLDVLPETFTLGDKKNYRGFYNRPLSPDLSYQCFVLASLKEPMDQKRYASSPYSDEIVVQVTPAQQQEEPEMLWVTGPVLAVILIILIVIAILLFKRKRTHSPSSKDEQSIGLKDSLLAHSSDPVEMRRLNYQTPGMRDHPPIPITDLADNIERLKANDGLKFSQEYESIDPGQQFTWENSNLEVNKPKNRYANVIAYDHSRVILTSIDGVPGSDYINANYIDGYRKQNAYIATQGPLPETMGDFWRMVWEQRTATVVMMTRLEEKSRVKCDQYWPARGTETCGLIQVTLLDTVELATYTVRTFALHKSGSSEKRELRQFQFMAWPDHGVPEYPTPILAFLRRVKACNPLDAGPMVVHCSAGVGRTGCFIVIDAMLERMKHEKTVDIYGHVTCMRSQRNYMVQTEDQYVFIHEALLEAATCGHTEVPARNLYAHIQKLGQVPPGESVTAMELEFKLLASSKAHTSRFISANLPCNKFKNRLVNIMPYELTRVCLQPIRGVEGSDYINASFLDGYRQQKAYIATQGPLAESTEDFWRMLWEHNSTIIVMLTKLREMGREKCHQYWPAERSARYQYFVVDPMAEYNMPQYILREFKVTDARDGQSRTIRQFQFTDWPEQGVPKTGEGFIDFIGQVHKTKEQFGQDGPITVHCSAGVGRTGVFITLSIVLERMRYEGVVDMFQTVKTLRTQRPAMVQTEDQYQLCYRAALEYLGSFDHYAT

B1: V8 aptamer (ssRNA)
RNA: GGGAGAUGCUCUGUCAGACUACGACUGUCCCAGUAUGACGCGACUGCUUAGGUGGGAUGUUUCCCAUGCCUCGACUGGCUGGCAGGUUGAUGACAAG
modifications: 2'-F on all pyrimidines, 2'-OH purines
Kd [1]: 1.6 nM | Kd [2]: 5.3 nM | Kd [3]: 3.8 nM | Kd [4]: 5.6 nM | Kd [5]: 3 nM
